Reference: US20200157519A1 (IMMUNWORK, published 2020)

T1: human fibrin (human fibrinogen coated on the plate and treated with thrombin) (human, UniProt P02671 36-629; P02675 45-491; P02679 27-437)
T1 construct: Made on the plate: coated human fibrinogen (Sigma) treated with 1.0 U/mL thrombin, CaCl2 and L-cysteine
T1 sequence (looked up) 1: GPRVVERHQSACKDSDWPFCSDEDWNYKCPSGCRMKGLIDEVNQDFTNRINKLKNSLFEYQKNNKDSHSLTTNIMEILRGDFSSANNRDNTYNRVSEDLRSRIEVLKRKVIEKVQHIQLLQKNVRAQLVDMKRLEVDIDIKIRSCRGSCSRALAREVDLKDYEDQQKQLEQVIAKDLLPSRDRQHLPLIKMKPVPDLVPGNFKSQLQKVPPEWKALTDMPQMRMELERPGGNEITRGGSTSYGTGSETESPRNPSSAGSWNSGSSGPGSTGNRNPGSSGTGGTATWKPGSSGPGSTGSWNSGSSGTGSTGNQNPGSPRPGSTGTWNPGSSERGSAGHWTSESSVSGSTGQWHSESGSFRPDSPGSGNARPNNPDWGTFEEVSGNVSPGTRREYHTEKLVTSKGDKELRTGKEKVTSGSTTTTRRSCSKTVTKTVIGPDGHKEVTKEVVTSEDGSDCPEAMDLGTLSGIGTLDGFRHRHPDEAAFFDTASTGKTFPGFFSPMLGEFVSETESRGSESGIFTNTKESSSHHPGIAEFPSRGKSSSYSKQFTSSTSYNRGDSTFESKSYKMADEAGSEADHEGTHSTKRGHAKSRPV
T1 sequence (looked up) 2: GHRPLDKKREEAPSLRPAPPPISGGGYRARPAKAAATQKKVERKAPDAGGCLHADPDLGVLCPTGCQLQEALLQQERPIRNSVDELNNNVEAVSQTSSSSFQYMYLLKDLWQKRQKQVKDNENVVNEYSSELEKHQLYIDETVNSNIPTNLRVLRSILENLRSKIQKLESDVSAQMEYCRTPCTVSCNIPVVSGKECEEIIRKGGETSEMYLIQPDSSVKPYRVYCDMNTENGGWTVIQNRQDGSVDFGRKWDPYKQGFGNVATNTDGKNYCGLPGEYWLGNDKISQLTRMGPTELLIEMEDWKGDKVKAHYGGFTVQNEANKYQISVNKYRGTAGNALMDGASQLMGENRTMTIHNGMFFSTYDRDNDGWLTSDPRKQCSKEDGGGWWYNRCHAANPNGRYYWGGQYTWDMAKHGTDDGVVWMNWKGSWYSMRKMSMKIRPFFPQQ
T1 sequence (looked up) 3: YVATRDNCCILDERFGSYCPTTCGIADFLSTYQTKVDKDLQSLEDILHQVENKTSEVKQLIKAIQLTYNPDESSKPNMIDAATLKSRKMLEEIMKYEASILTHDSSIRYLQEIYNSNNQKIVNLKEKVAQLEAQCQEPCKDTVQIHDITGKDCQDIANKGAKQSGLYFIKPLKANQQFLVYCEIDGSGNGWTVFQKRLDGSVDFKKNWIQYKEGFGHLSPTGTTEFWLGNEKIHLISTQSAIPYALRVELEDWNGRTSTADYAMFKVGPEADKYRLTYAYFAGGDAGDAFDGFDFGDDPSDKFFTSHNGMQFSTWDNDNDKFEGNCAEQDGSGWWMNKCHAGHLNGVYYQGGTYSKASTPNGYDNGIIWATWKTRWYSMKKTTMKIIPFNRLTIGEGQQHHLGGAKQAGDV

T2: crosslinked human fibrin treated by human factor XIIIa (human, UniProt P02671 36-629; P02675 45-491; P02679 27-437, crosslinked by factor XIIIa)
T2 construct: Coated human fibrinogen treated with thrombin and 0.55 ug factor XIIIa (Zedira) per well; also called crosslinked fibrin
T2 sequence (looked up) 1: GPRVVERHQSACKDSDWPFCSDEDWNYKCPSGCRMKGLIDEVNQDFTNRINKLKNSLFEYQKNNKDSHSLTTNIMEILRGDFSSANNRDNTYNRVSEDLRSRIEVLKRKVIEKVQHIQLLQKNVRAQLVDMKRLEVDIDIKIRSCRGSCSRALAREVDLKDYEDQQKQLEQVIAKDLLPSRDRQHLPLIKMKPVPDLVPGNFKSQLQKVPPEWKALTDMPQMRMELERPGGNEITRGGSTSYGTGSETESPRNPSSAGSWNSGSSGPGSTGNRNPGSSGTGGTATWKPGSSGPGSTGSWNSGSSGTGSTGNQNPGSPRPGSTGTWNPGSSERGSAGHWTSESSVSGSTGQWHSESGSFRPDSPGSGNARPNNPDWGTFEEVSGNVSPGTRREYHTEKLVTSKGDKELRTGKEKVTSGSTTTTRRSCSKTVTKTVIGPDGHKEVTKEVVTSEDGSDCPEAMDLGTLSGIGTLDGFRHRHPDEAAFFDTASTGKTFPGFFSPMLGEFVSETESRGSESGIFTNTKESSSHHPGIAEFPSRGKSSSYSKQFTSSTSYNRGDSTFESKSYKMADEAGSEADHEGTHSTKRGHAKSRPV
T2 sequence (looked up) 2: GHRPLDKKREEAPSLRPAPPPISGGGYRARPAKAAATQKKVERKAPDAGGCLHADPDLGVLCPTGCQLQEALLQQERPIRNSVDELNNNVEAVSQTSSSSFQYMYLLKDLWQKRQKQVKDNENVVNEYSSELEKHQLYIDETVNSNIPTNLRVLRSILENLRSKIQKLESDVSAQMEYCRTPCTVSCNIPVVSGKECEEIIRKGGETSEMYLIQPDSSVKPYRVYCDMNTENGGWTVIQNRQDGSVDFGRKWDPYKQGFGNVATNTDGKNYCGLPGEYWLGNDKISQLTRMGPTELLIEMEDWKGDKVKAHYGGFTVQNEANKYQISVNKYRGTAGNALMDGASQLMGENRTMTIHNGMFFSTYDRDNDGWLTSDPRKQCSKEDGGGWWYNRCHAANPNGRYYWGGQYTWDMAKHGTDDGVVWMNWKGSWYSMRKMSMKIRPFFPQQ
T2 sequence (looked up) 3: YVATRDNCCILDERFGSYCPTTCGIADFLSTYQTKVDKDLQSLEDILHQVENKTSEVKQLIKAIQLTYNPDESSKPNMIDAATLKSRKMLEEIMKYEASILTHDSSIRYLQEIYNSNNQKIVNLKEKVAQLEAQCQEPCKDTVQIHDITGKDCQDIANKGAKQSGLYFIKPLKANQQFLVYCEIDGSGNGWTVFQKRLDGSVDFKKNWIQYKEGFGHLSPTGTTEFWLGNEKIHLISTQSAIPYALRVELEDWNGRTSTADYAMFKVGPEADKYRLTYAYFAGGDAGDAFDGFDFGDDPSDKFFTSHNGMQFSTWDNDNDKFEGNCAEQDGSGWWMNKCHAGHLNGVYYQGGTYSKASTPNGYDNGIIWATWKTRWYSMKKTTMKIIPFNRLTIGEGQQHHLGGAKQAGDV


Assays:
[1] = molecular target: T1, human fibrin (human fibrinogen coated …); assay: ELISA on fibrin-coated plate, HRP-protein L
Procedure: Each fibrin plate was prepared as follows. 100 μL of TBS containing a final concentration of 1.0 U/mL thrombin (Sigma), 2 mM CaCl, and 7 mM L-cysteine (Merck) was added to the wells of the fibrinogen plate, which was then washed with TBS and blocked with the buffer (5% non-fat dry milk/PBS). After the blocking, 100 μL of antibodies were added to each well, and the plate was incubated at room temperature for 1 hour. The plate was then washed three times, the HRP-conjugated protein L diluted to 1/5000 was added to the wells and incubated for 1 hour at room temperature. The wells were washed three times and added with 100 μL of TMB substrate buffer. 5 minutes later, the color development was stopped with 1 M HCl. The optical density (OD) was measured at 450 nm using a microplate reader.

[2] = molecular target: T2, crosslinked human fibrin treated by …; assay: ELISA on crosslinked fibrin plate, HRP-protein L
[3] = molecular target: T1, human fibrin (human fibrinogen coated …); assay: single colony ELISA, secreted scFv on coated fibrin, anti-E-tag-HRP
Procedure: (§1) E. coli strain ER2738 infected with single-clonal phages each harboring a selected scFv gene in its phagemid was grown in the mid-log phase in 2YT broth (16 g/L tryptone, 10 g/l yeast extract, 5 g/l NaCl, pH 7.0) with 100 μg/ml ampicillin in deep well at 37° C. with shaking. After broth reaching an OD₆₀₀ of 1.0, IPTG was added to a final concentration of 1 μg/ml. The plates were incubated at 37° C. overnight with rigorously shaking. Thereafter, the plates were centrifuged at 4,000 g for 15 minutes at 4° C.
(§2) For soluble scFv binding test, ELISA was carried out. In brief, 96-well Maxisorp 96-well plate (Nunc) was coated with fibrin (0.5 μg/100 μL PBS per well) or a negative control antigen, human fibrinogen, for 18 hours with shaking at 4° C. After treated with 300 μL of blocking buffer for one hour, 100 μL of secreted scFv in the supernatant was mixed with 100 μL of blocking buffer and then added to the coated plate for another one hour. Goat anti-E-tag antibody (conjugated with HRP, 1:4000, Cat. No. AB19400, Abcam) was added to the plate for one hour. TMB substrate (50 μL per well) was added to each well and the absorbance at 450 nm was measured after reactions were stopped by adding 1 N HCl (50 μL per well). The OD₄₅₀ for each well was measured to determine the binding affinity of each scFv clone to fibrin or fibrinogen. For each scFv clone, the OD₄₅₀ value with respect to fibrin was divided by with the OD₄₅₀ value with respect to fibrinogen to obtain an OD₄₅₀ ratio representing the selective binding of said scFv to fibrin over fibrinogen. In the single colony ELISA analysis, a total of 192 phage clones after the 3rd panning round was subjected to the present analysis. Among them, 12 scFv clones that bound to fibrin with an OD₄₅₀ ratio greater than 10 were further characterized by sequencing their scFv-coding gene. Six different DNA sequences were identified. […] The amino acid sequence of an scFv clone D10, which binds to human fibrin with an OD₄₅₀ of 1.3, is shown in SEQ ID NO: 4.

[4] = molecular target: T1, human fibrin (human fibrinogen coated …); assay: single colony ELISA, OD450 on fibrin divided by OD450 on fibrinogen
Procedure: as §1, §2

Binder | binding result [1] | binding result [2] | OD450_Fibrin [3] | OD450 ratio (fibrin over fibrinogen) [4]
recombinant anti-fibrin 3D5 antibody (full-length) (antibody, human IgG1, kappa, V domains shown, Expressed from the pG1K vector in Expi293F cells, purified on Protein A) VH: EVQLVESGGGLVQPGGSLRLSCAASGFTISDFGIHWVRQAPGKGLEWVASIWPSGGYTYYADSVKGRFTISADTSKNTAYLQMNSLRAEDTAVYYCARSWFYSWYDYWGQGTLVTVSS VL: DIQMTQSPSSLSASVGDRVTITCRASQDVSNNVAWYQQKPGKAPKLLIFWSPWLYSGVPSRFSGSGSGTDFTLTISSLQPEDFATYYCQQGWDSPVTFGQGTKVEIKR | binds | binds |  | 
phage-displayed 3D5 scFv (scFv, Tested as secreted scFv in culture supernatant, detected through its E-tag) scFv: DIQMTQSPSSLSASVGDRVTITCRASQDVSNNVAWYQQKPGKAPKLLIFWSPWLYSGVPSRFSGSGSGTDFTLTISSLQPEDFATYYCQQGWDSPVTFGQGTKVEIKRGGGGSGGGGSGGGGSEVQLVESGGGLVQPGGSLRLSCAASGFTISDFGIHWVRQAPGKGLEWVASIWPSGGYTYYADSVKGRFTISADTSKNTAYLQMNSLRAEDTAVYYCARSWFYSWYDYWGQGTLVTVSS |  |  | 0.829 OD450 | 377
scFv clone 3C2 (scFv, V domains shown, Tested as a secreted scFv with E-tag from the phage library) VH: EVQLVESGGGLVQPGGSLRLSCAASGFTIGNSSIHWVRQAPGKGLEWVAGIWPYWGSTYYADSVKGRFTISADTSKNTAYLQMNSLRAEDTAVYYCARFGINNDGFMDYWGQGTLVTVSS VL: DIQMTQSPSSLSASVGDRVTITCRASQDVSGWVAWYQQKPGKAPKLLISSTGSLYSGVPSRFSGSGSGTDFTLTISSLQPEDFATYYCQQYYDFPITFGQGTKVEIKR |  |  | 0.759 OD450 | 64.9
scFv clone 8F2 (scFv, V domains shown, Tested as a secreted scFv with E-tag from the phage library) VH: EVQLVESGGGLVQPGGSLRLSCAASGFTINNYGIHWVRQAPGKGLEWVAGIWPYWGYTYYADSVKGRFTISADTSKNTAYLQMNSLRAEDTAVYYCARFDSNSYSSYSDGFMDYWGQGTLVTVSS VL: DIQMTQSPSSLSASVGDRVTITCRASQDVDNSVAWYQQKPGKAPKLLISSARSLYSGVPSRFSGSGSGTDFTLTISSLQPEDFATYYCQQYYNYPITFGQGTKVEIKR |  |  | 0.527 OD450 | 14.4
scFv clone 7A3 (scFv, V domains shown, Tested as a secreted scFv with E-tag from the phage library) VH: EVQLVESGGGLVQPGGSLRLSCAASGFTINDWSIHWVRQAPGKGLEWVAYIGPFWGSTFYADSVKGRFTISADTSKNTAYLQMNSLRAEDTAVYYCARGYFGFDYWGQGTLVTVSS VL: DIQMTQSPSSLSASVGDRVTITCRASQDVGGWVAWYQQKPGKAPKLLISSPRSLYSGVPSRFSGSGSGTDFTLTISSLQPEDFATYYCQQYFSSPFTFGQGTKVEIKR |  |  | 0.428 OD450 | 20.5
recombinant anti-fibrin 102-10 antibody (full-length) (antibody, human IgG1, kappa, V domains shown) VH: QIQLVQSGPELKKPGETVKISCKASGYTFTNYGMNWVKQAPGKGLKWMGWINTYTGEATYADDFKGRFAFSLETSANTAYVQINNLKNEDTATYFCARLMDYWGQGTSVTVSS VL: DIQMTQSPSSLSASLGGKVTITCKASQDINKYIAWFQHKPGKGPRLLIHYTSTLQPGIPSRFSGSGSGRDYSFSISNLEPEDLATYYCLQYDNLTWTFGGGTKLEIKR | binds | binds |  | 
